12 molecules from patent US7655227 (Chugai, dated 2010) can be followed below.

Test [1] deals with T1, human PTHrP (1-34) (human).
T1 construct: Coated on the ELISA plate at 1 ug/ml; Added at 1 ng/ml final in the cAMP neutralisation assay, where the species is not restated; also called parathyroid hormone-related peptide (1-34)
The experiment in a line: ELISA, plate coated with human PTHrP (1-34). The procedure: An ELISA plate for determining antigen-binding ability was prepared as follows. Each well of a 96-well ELISA plate was coated with 100 μl of a coating buffer containing 1 μg/ml of human PTHrP (1-34) and then blocked with 200 μl of a dilution buffer. Subsequently, each well was added with each of the serial dilutions of the COS-7 cell culture supernatant in which each of the hybrid antibodies and humanized antibodies was expressed, or added with each of the serial dilutions of each of the hybrid antibodies and humanized antibodies in a purified form. The plate was incubated at room temperature and washed with PBS-Tween 20. Subsequently, each well was added with 100 μl of alkaline phosphatase-conjugated goat anti-human IgG antibody (TAGO). The plate was incubated at room temperature and washed with PBS-Tween 20. Subsequently, each well was added with 1 mg/ml of a substrate solution ("Sigma 104"; p-nitrophenylphosphoric acid, SIGMA). The solution was measured on its absorbance at 405 nm using Microplate Reader (Bio Rad).
On the technique in general: In an ELISA, binding on a coated surface is turned into a signal by an enzyme label.

Test [2] addresses T1, human PTHrP (1-34). The experiment in a line: ELISA, plate coated with human PTHrP (1-34); COS-7 supernatant or purified antibody. As to the method:
An ELISA plate for the determination of antigen-binding ability was prepared as follows. Each well of a 96-well ELISA plate was coated with 100 µl of a coating buffer supplemented with 1 µg/ml of human PTHrP (1-34) (Peptide Research Institute), and then blocked with 200 µl of a dilution buffer. Each well was added with each of the serial dilutions of the COS-7 cell culture supernatant in which each of the chimeric antibodies had been expressed, or added with each of the serial dilutions of each of the chimeric antibodies per se in a purified form. After the plate was incubated at room temperature and washed with PBS-Tween 20, each well of the plate was added with 100 µl of a solution of alkaline phosphatase-conjugated goat anti-human IgG antibodies (TAGO). After the plate was incubated at room temperature and washed with PBS-Tween 20, each well of the plate was added with 1 mg/ml of a substrate solution ("Sigma 104"; p-nitrophenylphosphoric acid, SIGMA). The solution was measured on its absorbance at 405 nm using Microplate Reader (Bio Rad).

For test [3], the target named is T1, human PTHrP (1-34). The experiment in a line: solid phase RIA of hybridoma culture supernatant. As to the method: The screening of hybridomas was performed by determining the presence of PTHrP-recognition antibodies in the culture supernatant of the wells in which cell growth had been observed in HAT medium, by solid phase RIA method. The hybridomas were collected from the wells in which the binding ability to the PTHrP-recognition antibodies had been confirmed. The hybridomas thus obtained was suspended into RPMI-1640 medium containing 15% FCS supplemented with OPI-supplement (Sigma), followed by unification of the hybridomas by limiting dilution method.

B1: antibody having both a humanized H-chain version “a” and a chimeric L-chain (antibody, V domains shown)
VH: QVQLVESGGGVVQPGRSLRLSCAASGFTFSSYGMSWVRQAPGKGLEWVATISSGGSYTYYPDSVKGRFTISRDNSKNTLYLQMNSLRAEDTAVYYCARQTTMTYFAYWGQGTLVTVSS
VL: QLVLTQSSSASFSLGASAKLTCTLSSQHSTYTIEWYQQQPLKPPKYVMDLKQDGSHSTGDGIPDRFSGSSSGADRYLSISNIQPEDEAMYICGVGDTIKEQFVYVFGGGTKVTVLG
notes: Human Cγ1 H-chain C-region
For the molecule B1, the binding result in the test with human PTHrP (1-34) [1] is “binds”.

B2: chimeric #23-57-137-1 antibody with L-chain λ chain C-region (antibody, IgG1, V domains shown)
VH: EVQLVESGGDLVKPGGSLKLSCAASGFTFSSYGMSWIRQTPDKRLEWVATISSGGSYTYYPDSVKGRFTISRDNAKNTLYLQMSSLKSEDTAMFYCARQTTMTYFAYWGQGTLVTVSA
VL: QLVLTQSSSASFSLGASAKLTCTLSSQHSTYTIEWYQQQPLKPPKYVMDLKQDGSHSTGDGIPDRFSGSSSGADRYLSISNIQPEDEAMYICGVGDTIKEQFVYVFGGGTKVTVLG
notes: Mouse V-regions joined to human H-chain C-region Cγ1 (IgG1) and human λ chain C-region (isotype Mcg+Ke+Oz-, EMBL X57819); Expressed in COS-7 cells; also called chimeric antibody (MBC1HcDNA/pCOS1 and MBC1L(λ)/neo)
As for B2, in the test with human PTHrP (1-34) [2], the binding result is reported as “binds”.

B3: mouse monoclonal antibody #23-57-137-1 against human PTHrP (1-34) (antibody, V domains shown)
VH: EVQLVESGGDLVKPGGSLKLSCAASGFTFSSYGMSWIRQTPDKRLEWVATISSGGSYTYYPDSVKGRFTISRDNAKNTLYLQMSSLKSEDTAMFYCARQTTMTYFAYWGQGTLVTVSA
VL: QLVLTQSSSASFSLGASAKLTCTLSSQHSTYTIEWYQQQPLKPPKYVMDLKQDGSHSTGDGIPDRFSGSSSGADRYLSISNIQPEDEAMYICGVGDTIKEQFVYVFGGGTKVTVLG
notes: Mouse antibody in hybridoma culture supernatant (FERM BP-5631); Lambda L-chain; also called MBC1
As to B3, in the test with human PTHrP (1-34) [3], the binding result is “binds”.

B4: chimeric #23-57-137-1 antibody with L-chain κ chain C-region (antibody, IgG1, V domains shown)
VH: EVQLVESGGDLVKPGGSLKLSCAASGFTFSSYGMSWIRQTPDKRLEWVATISSGGSYTYYPDSVKGRFTISRDNAKNTLYLQMSSLKSEDTAMFYCARQTTMTYFAYWGQGTLVTVSA
VL: QLVLTQSSSASFSLGASAKLTCTLSSQHSTYTIEWYQQQPLKPPKYVMDLKQDGSHSTGDGIPDRFSGSSSGADRYLSISNIQPEDEAMYICGVGDTIKEQFVYVFGGGTKVTVLG
notes: Mouse V-regions joined to human H-chain C-region Cγ1 (IgG1) and human κ chain C-region cloned from HEF-PM1k-gk; Expressed in COS-7 cells; also called chimeric antibody (MBC1HcDNA/pCOS1 and MBC1L(κ)/neo)
As for B4, the binding result with human PTHrP (1-34) [2] is recorded as “binds”.

B5: humanized #23-57-137-1 antibody having H-chain version “a” and L-chain version “l” (antibody, IgG1, V domains shown)
VH: QVQLVESGGGVVQPGRSLRLSCAASGFTFSSYGMSWVRQAPGKGLEWVATISSGGSYTYYPDSVKGRFTISRDNSKNTLYLQMNSLRAEDTAVYYCARQTTMTYFAYWGQGTLVTVSS
VL: QLVLTQSPSASASLGASVKLTCTLSSQHSTYTIEWYQQQPEKGPKYVMDLKQDGSHSTGDGIPDRFSGSSSGAERYLTISSLQSEDEADYYCGVGDTIKEQFVYVFGGGTKLTVLG
notes: Human Cγ1 (IgG1) and human λ C-regions; expressed in COS-7 cells; also called hMBC1Llλ
B5: the binding result with human PTHrP (1-34) [1] is reported as “binds”.

B6: humanized #23-57-137-1 antibody having H-chain version “a” and L-chain version “m” (antibody, IgG1, V domains shown)
VH: QVQLVESGGGVVQPGRSLRLSCAASGFTFSSYGMSWVRQAPGKGLEWVATISSGGSYTYYPDSVKGRFTISRDNSKNTLYLQMNSLRAEDTAVYYCARQTTMTYFAYWGQGTLVTVSS
VL: QLVLTQSPSASASLGASVKLTCTLSSQHSTYTIEWYQQQPEKGPRYLMDLKQDGSHSTGDGIPDRFSGSSSGAERYLTISSLQSEDEADYYCGVGDTIKEQFVYVFGGGTKLTVLG
notes: Human Cγ1 (IgG1) and human λ C-regions; expressed in COS-7 cells; also called hMBC1Lmλ
Consider B6, for which the binding result in the test with human PTHrP (1-34) [1] was “binds”.

B7: humanized #23-57-137-1 antibody having H-chain version “a” and L-chain version “q” (antibody, IgG1, V domains shown)
VH: QVQLVESGGGVVQPGRSLRLSCAASGFTFSSYGMSWVRQAPGKGLEWVATISSGGSYTYYPDSVKGRFTISRDNSKNTLYLQMNSLRAEDTAVYYCARQTTMTYFAYWGQGTLVTVSS
VL: QLVLTQSPSASASLGASVKLTCTLSSQHSTYTIEWYQQQPEKGPKYLMDLKQDGSHSTGDGIPDRFSGSSSGAERYLTISSLQSEDEADYICGVGDTIKEQFVYVFGGGTKLTVLG
notes: Human Cγ1 (IgG1) and human λ C-regions; expressed in COS-7 cells and in CHO cells; also called hMBC1Lqλ
Take B7: in the test with human PTHrP (1-34) [1], the binding result is “binds”.

B8: hybrid antibody with humanized H-chain version a and L-chain hmmMBC1L(λ) (human FR1/mouse FR2,3,4) (antibody, V domains shown)
VH: QVQLVESGGGVVQPGRSLRLSCAASGFTFSSYGMSWVRQAPGKGLEWVATISSGGSYTYYPDSVKGRFTISRDNSKNTLYLQMNSLRAEDTAVYYCARQTTMTYFAYWGQGTLVTVSS
VL: QLVLTQSPSASASLGASVKLTCTLSSQHSTYTIEWYQQQPLKPPKYVMDLKQDGSHSTGDGIPDRFSGSSSGADRYLSISNIQPEDEAMYICGVGDTIKEQFVYVFGGGTKVTVL
notes: Human Cγ1 and human λ C-regions; expressed in COS-7 cells
On to B8, for which the binding result with human PTHrP (1-34) [1] was “binds”.

B9: humanized #23-57-137-1 antibody having H-chain version “a” and L-chain version “j” (antibody, IgG1, V domains shown)
VH: QVQLVESGGGVVQPGRSLRLSCAASGFTFSSYGMSWVRQAPGKGLEWVATISSGGSYTYYPDSVKGRFTISRDNSKNTLYLQMNSLRAEDTAVYYCARQTTMTYFAYWGQGTLVTVSS
VL: QLVLTQSPSASASLGASVKLTCTLSSQHSTYTIEWYQQQPEKGPKYLMDLKQDGSHSTGDGIPDRFSGSSSGAERYLTISSLQSEDEADYYCGVGDTIKEQFVYVFGGGTKLTVLG
notes: Human Cγ1 (IgG1) and human λ C-regions; expressed in COS-7 cells; also called hMBC1Ljλ
B9: in the test with human PTHrP (1-34) [1], the binding result is on record as “binds”.

B10: hybrid antibody with humanized H-chain version a and L-chain m/hMBC1Laλ (mouse FR1,2/human FR3,4) (antibody, V domains shown)
VH: QVQLVESGGGVVQPGRSLRLSCAASGFTFSSYGMSWVRQAPGKGLEWVATISSGGSYTYYPDSVKGRFTISRDNSKNTLYLQMNSLRAEDTAVYYCARQTTMTYFAYWGQGTLVTVSS
VL: QLVLTQSSSASFSLGASAKLTCTLSSQHSTYTIEWYQQQPLKPPKYVMDLKQDGSHSTGDGIPDRFSGSSSGAERYLTISSLQSEDEADYYCGVGDTIKEQFVYVFGGGTKLTVL
notes: as for B8
B10: the binding result with human PTHrP (1-34) [1] is listed as “binds”.

B11: humanized #23-57-137-1 antibody having H-chain version “a” and L-chain version “t” (antibody, IgG1, V domains shown)
VH: QVQLVESGGGVVQPGRSLRLSCAASGFTFSSYGMSWVRQAPGKGLEWVATISSGGSYTYYPDSVKGRFTISRDNSKNTLYLQMNSLRAEDTAVYYCARQTTMTYFAYWGQGTLVTVSS
VL: QLVLTQSPSASASLGASVKLTCTLSSQHSTYTIEWYQQQPEKGPRYVMDLKQDGSHSTGDGIPDRFSGSSSGAERYLTISSLQSEDEADYICGVGDTIKEQFVYVFGGGTKLTVLG
notes: Human Cγ1 (IgG1) and human λ C-regions; expressed in COS-7 cells; also called hMBC1Ltλ
As for B11, the binding result with human PTHrP (1-34) [1] is recorded as “binds”.

B12: humanized #23-57-137-1 antibody having H-chain version “a” and L-chain version “o” (antibody, IgG1, V domains shown)
VH: QVQLVESGGGVVQPGRSLRLSCAASGFTFSSYGMSWVRQAPGKGLEWVATISSGGSYTYYPDSVKGRFTISRDNSKNTLYLQMNSLRAEDTAVYYCARQTTMTYFAYWGQGTLVTVSS
VL: QLVLTQSPSASASLGASVKLTCTLSSQHSTYTIEWYQQQPEKGPRYVMDLKQDGSHSTGDGIPDRFSGSSSGAERYLTISSLQSEDEADYYCGVGDTIKEQFVYVFGGGTKLTVLG
notes: Human Cγ1 (IgG1) and human λ C-regions; expressed in COS-7 cells; also called hMBC1Loλ
With B12, the binding result with human PTHrP (1-34) [1] was “binds”.
